{"source": "paper PMC10185811", "about": "(2023)", "binders": {"B1": {"name": "NUB1L (NEDD8 ultimate buster 1 long), tagless (natural protein)", "chain": "MAQKKYLQAKLTQFLREDRIQLWKPPYTDENKKVGLALKDLAKQYSDRLECCENEVEKVIEEIRCKAIERGTGNDNYRTTGIATIEVFLPPRLKKDRKNLLETRLHITGRELRSKIAETFGLQENYIKIVINKKQLQLGKTLEEQGVAHNVKAMVLELKQSEEDARKNFQLEEEEQNEAKLKEKQIQRTKRGLEILAKRAAETVVDPEMTPYLDIANQTGRSIRIPPSERKALMLAMGYHEKGRAFLKRKEYGIALPCLLDADKYFCECCRELLDTVDNYAVLQLDIVWCYFRLEQLECLDDAEKKLNLAQKCFKNCYGENHQRLVHIKGNCGKEKVLFLRLYLLQGIRNYHSGNDVEAYEYLNKARQLFKELYIDPSKVDNLLQLGFTAQEARLGLRACDGNVDHAATHITNRREELAQIRKEEKEKKRRRLENIRFLKGMGYSTHAAQQVLHAASGNLDEALKILLSNPQMWWLNDSNPETDNRQESPSQENIDRLVYMGFDALVAEAALRVFRGNVQLAAQTLAHNGGSLPPELPLSPEDSLSPPATSPSDSAGTSSASTDEDMETEAVNEILEDIPEHEEDYLDSTLEDEEIIIAEYLSYVENRKSATKKN"}, "B2": {"name": "GST-FAT10 (natural protein)", "chain": "MAPNASCLCVHVRSEEWDLMTFDANPYDSVKKIKEHVRSKTKVPVQDQVLLLGSKILKPRRSLSSYGIDKEKTIHLTLKVVKPSDEELPLFLVESGDEAKRHLLQVRRSSSVAQVKAMIETKTGIIPETQIVTCNGKRLEDGKMMADYGIRKGNLLFLACYCIGG"}, "B3": {"name": "NUB1L-bound GST-FAT10 (NUB1L co-incubated with GST-FAT10) (complex)", "chain 1": "B1 chain", "chain 2": "B2 chain"}}, "key": {"His6-RPN1 WT [1]": {"biological_target": "T1, His6-RPN1 WT (human, UniProt Q13200 1-908)", "T1 sequence (Q13200 whole entry)": "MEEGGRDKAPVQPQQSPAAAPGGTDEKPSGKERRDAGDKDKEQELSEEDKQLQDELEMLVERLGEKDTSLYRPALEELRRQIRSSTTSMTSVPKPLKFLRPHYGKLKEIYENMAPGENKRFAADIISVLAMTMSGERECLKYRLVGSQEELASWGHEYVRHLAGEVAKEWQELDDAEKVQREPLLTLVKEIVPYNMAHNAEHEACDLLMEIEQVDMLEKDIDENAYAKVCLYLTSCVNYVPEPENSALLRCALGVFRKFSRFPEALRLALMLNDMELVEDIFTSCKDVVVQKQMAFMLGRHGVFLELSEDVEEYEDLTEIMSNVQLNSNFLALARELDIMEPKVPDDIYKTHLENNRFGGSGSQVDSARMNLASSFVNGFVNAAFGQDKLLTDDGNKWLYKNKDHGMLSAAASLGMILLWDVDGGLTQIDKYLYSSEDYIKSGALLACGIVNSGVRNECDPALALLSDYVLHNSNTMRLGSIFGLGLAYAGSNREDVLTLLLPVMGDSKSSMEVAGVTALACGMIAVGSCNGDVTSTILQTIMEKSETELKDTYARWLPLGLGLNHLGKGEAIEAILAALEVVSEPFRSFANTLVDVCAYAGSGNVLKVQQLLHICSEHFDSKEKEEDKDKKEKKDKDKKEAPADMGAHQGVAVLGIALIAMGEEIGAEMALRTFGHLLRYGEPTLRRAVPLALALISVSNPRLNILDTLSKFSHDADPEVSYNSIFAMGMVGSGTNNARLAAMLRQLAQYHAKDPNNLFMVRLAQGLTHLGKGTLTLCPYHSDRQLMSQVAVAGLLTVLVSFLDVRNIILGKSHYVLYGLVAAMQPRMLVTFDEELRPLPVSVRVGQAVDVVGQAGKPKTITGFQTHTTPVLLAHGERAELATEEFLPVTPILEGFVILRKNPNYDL", "assay": "BLI"}, "His6-RPN1 WT [2]": {"biological_target": "T1, His6-RPN1 WT", "assay": "BLI; in presence of GST; unit inferred, M assumed"}, "His6-RPN1 WT [3]": {"biological_target": "T1, His6-RPN1 WT", "assay": "BLI; NUB1L pre-bound to GST-FAT10; unit inferred, M assumed"}}}
{"binder": "B1", "values": [{"measurement": "Kd", "setting": "His6-RPN1 WT [1]", "result": 1.71, "unit": "µM"}, {"measurement": "Kd", "setting": "His6-RPN1 WT [2]", "result": 1.56, "unit": "µM"}]}
{"binder": "B2", "values": [{"measurement": "Kd", "setting": "His6-RPN1 WT [1]", "result": 4040, "unit": "µM"}]}
{"binder": "B3", "values": [{"measurement": "Kd", "setting": "His6-RPN1 WT [3]", "result": 0.432, "unit": "µM"}]}
